Literature values, collected in article PMC7500696.

Molecular target: tropomyosin N-terminal peptide N-terminal fragment (UniProt P09493)
Assay: CD

Kd: 1000 nM
Substance: Leiomodin-2 Lmod2s1 Lmod2s1 (from UniProt Q3UHZ5)
